Measured values reported in US20230039109A1 (Novartis, published 2023).

Biological target: T1, human CD73 expressed on the cell surface (human, UniProt P21589 27-549)
T1 construct: whole, on cells; also called surface CD73
T1 sequence (looked up): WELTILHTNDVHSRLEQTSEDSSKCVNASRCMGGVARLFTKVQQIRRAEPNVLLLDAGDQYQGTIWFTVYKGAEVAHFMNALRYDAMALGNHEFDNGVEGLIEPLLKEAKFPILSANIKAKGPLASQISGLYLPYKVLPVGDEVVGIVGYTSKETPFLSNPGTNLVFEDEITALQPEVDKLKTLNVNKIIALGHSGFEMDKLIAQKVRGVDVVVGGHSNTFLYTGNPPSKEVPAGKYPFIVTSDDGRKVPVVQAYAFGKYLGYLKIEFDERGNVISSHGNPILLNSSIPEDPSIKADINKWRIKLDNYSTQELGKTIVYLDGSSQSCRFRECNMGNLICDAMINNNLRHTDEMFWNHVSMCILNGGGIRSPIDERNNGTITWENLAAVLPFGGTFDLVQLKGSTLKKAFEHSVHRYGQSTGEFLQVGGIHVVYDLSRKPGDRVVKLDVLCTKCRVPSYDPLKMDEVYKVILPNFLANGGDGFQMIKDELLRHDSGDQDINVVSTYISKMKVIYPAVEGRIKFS
Experiment: flow cytometry, biotinylated antibody in human whole blood, CD8+ T cells, streptavidin-APC
Description: Whole blood target engagement was assessed by flow cytometry using whole blood from healthy human donors. Briefly, biotinylated antibodies were incubated with whole blood for 30 minutes prior to red blood cell lysis and fixation. Fixed cells were stained for CD3 and CD8 to identify CD8+ T cells, and streptavidin-APC to detect biotin. After staining, the cell were washed and subjected to flow cytometry analysis.

B1: anti-CD73 antibody 356.B (antibody, human IgG4 S228P, kappa, V domains shown)
VH: QVQLQESGPGLVKPSETLSLTCTVSGGSIEGRYWSWIRQPPGKGLEWIGYIYGSGSTKYNPSLKSRVTISVDTSKNQFSLKLSSVTAADTAVYYCARESQESPYNNWFDPWGQGTLVTVSS
VL: DIQMTQSPSSVSASVGDRVTITCRASQGISSWLAWYQQKPGKAPKLLIYAASSLQSGVPSRFSGSGSGTDFTLTISSLQPEDFATYYCQQGNSFPRTFGGGTKVEIKR
notes: IgG4 S228P/L235E format; The last heavy chain residue X is K or absent; Biotinylated in the whole blood flow cytometry assay
EC50 (read off the curve): ~6 ng/mL
